# Target: the molecule itself
# Experiment: cryo-EM structure; LDAF1-FLAG/seipin (1–310) sample in PMAL C8, 25 mM HEPES pH 7.4, 150 mM NaCl, 2 mg/ml, PEGylated with MS(PEG)12; 3D classification without symmetry; one class with the luminal domains used; TM region at low resolution
protein,measurement,value
"seipin (1–310) (domain or fragment, human, UniProt Q96G97 1-310, looked up, seipin, human, residues 1-310; No tag is stated for seipin; It was purified through the FLAG tag of co-expressed LDAF1; The sample was treated with MS(PEG)12 methyl-PEG-NHS-ester before cryo-EM; The introduction calls human seipin an undecamer, citing other work; also called human seipin) MVNDPPVPALLWAQEVGQVLAGRARRLLLQFGVLFCTILLLLWVSVFLYGSFYYSYMPTVSHLSPVHFYYRTDCDSSTTSLCSFPVANVSLTKGGRDRVLMYGQPYRVTLELELPESPVNQDLGMFLVTISCYTRGGRIISTSSRSVMLHYRSDLLQMLDTLVFSSLLLFGFAEQKQLLEVELYADYRENSYVPTTGAIIEIHSKRIQLYGAYLRIHAHFTGLRYLLYNFPMTCAFIGVASNFTFLSVIVLFSYMQWVWGGIWPRHRFSLQVNIRKRDNSRKEVQRRISAHQPGPEGQEESTPQSDVTED",binding result,binds

# — article PMC9122495, “Seipin transmembrane segments critically function in triglyceride nucleation and lipid droplet budding from the membrane” (eLife, 2022)
